Measurements taken from patent publication US6891027.

Key:
[1] = biological target: CD21 on mouse B cells (mouse) (UniProt P19070); experiment: cell-based or functional assay
[2] = biological target: CD21 on Raji B lymphoblastoid cells (human) (UniProt P20023); experiment: 50% inhibition of specific binding of [125I]HEL-C3d2 to Raji cells expressing CD21; two experiments
[3] = biological target: transgenic membrane IgM and IgD specific for HEL on mouse B cells; experiment: transgenic B cells incubated with 3 nM protein for 10 min, free sites read by subsequent binding of fluorescein-conjugated HEL
[4] = biological target: transgenic membrane IgM and IgD specific for HEL on mouse B cells; experiment: cell-based or functional assay

CD21 on mouse B cells (mouse), sequence (P19070 12-1025): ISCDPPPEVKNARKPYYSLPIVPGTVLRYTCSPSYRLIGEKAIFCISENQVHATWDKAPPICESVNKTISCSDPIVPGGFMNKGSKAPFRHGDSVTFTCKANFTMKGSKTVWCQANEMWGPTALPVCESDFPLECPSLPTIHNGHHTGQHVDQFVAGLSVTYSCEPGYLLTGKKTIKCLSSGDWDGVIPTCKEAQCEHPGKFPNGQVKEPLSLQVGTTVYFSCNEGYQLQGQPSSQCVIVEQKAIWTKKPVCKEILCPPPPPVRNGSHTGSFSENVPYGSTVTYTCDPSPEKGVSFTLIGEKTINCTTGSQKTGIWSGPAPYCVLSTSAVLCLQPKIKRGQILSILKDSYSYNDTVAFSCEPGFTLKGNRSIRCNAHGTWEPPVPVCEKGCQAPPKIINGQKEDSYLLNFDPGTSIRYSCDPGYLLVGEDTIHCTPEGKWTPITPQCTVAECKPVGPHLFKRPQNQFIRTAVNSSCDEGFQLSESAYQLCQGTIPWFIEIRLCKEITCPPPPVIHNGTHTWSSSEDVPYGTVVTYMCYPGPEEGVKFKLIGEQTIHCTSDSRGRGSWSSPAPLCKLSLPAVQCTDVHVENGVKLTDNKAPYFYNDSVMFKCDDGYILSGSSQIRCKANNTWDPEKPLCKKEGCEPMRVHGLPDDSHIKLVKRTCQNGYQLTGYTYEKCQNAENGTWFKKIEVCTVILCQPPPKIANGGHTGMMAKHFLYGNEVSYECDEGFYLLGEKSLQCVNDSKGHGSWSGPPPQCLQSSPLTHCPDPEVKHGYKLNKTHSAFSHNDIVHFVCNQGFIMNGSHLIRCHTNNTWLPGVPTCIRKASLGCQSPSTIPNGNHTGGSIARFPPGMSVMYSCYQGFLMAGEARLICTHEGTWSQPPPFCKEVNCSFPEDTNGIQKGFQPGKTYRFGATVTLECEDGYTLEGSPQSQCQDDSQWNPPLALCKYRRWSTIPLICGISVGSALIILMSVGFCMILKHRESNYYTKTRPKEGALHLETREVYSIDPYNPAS
CD21 on Raji B lymphoblastoid cells (human), sequence (P20023 21-1033): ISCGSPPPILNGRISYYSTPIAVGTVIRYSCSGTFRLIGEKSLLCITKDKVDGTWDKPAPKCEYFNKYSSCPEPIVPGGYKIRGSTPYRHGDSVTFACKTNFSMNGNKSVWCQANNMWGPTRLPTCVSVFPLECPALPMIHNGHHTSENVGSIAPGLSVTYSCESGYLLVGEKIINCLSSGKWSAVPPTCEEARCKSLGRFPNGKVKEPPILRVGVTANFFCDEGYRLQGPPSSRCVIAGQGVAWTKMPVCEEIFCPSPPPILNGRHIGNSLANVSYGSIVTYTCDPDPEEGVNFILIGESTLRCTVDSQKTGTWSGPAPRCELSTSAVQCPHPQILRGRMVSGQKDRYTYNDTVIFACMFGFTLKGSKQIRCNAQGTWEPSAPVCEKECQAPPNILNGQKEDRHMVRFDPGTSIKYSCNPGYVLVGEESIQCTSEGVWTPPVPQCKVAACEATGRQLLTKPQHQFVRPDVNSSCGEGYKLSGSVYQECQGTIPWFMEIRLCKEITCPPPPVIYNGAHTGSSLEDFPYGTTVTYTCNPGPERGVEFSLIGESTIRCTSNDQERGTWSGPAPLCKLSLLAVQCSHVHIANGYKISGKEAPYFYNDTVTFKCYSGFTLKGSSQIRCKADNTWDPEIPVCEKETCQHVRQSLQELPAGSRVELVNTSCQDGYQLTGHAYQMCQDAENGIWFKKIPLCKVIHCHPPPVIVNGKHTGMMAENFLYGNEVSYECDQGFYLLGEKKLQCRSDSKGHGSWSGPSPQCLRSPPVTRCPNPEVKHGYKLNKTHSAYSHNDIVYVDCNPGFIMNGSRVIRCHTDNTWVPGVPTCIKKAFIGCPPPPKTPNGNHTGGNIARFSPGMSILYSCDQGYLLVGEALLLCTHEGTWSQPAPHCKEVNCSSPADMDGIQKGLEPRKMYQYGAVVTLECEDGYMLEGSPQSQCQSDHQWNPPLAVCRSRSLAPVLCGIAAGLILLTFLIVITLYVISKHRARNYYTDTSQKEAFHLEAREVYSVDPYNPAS

Row | Substance | threshold for increase in [Ca2+]i in HEL-specific B cells [1] | IC50 [2] | % saturation of the anti-HEL sites [3] | threshold for increase in [Ca2+]i in HEL-specific B cells (nM (printed as '7 n')) [4]
1 | HEL-C3d2 recombinant fusion protein (hen egg lysozyme fused to two murine C3d) (from UniProt P00698 19-147; P01027 1006-1302; P01027 1006-1302) | 0.07 nM | 8 to 20 nM | – | –
2 | HEL-C3d3 recombinant fusion protein (hen egg lysozyme fused to three murine C3d) (from UniProt P00698 19-147; P01027 1006-1302; P01027 1006-1302; P01027 1006-1302) | 0.007 nM | – | 47% | –
3 | HEL-C3d recombinant fusion protein (hen egg lysozyme fused to one murine C3d) (from UniProt P00698 19-147; P01027 1006-1302) | 0.7 nM | – | – | –
4 | recombinant hen egg lysozyme with YL1/2 epitope tag (HEL.YL) (from UniProt P00698 19-147) | – | – | 51% | 7
